Results: US20220107327A1, “MULTI-TARGET CROSSLINKERS AND USES THEREOF” (The Regents of the University of California, published 2022)

B1: ATC(4x) (ssDNA)
DNA: AATTCGCCAATGACAAGACGCTGGGCGGGGCCGGATCCATCATCATCATCTAGAAGCT
B2: E. coli wild type glutathione S-transferase (GST) (enzyme)
chain: MKLFYKPGACSLASHITLRESGKDFTLVSVDLMKKRLENGDDYFAVNPKGQVPALLLDDGTLLTEGVAIMQYLADSVPDRQLLAPVNSISRYKTIEWLNYIATELHKGFTPLFRPDTPEEYKPTVRAQLEKKLQYVNEALKDEHWICGQRFTIADAYLFTVLRWAYAVKLNLEGLEHIAAFMQRMAERPEVQDALSAEGLKHHHHHH
notes: Written as the single subunit
B3: 19(3x) (ssDNA)
DNA: TGTAGCTGTTGATCTAAGTTGTAGCTGTTGATCTAAGTTGTAGCTGTTGATCTAAGT

How the values were obtained:
[1] = target: SSB (single-stranded DNA binding protein) (UniProt P0AGE0 P0AGE0:2-178); assay: covalent crosslinking with NHQM + 365 nm UV, denaturing TBE-urea gel shift; 1.5 uM DNA, 0.2 mg/mL SSB, 37 C 30 min; no crosslink with BS3 or UV alone; conditions: chain copies: 4
[2] = target: the molecule itself; assay: NHSF or BS2G cross-linking of purified GST; SDS-PAGE and Western blot under reducing and denatured conditions (homodimer)

Sequence of SSB (single-stranded DNA binding protein) (P0AGE0 2-178, one chain of several): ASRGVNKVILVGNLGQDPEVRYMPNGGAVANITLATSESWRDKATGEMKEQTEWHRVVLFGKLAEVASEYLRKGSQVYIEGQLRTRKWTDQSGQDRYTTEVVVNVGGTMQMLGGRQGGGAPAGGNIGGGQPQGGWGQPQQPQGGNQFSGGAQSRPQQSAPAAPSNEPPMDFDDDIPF

| Binder | binding result [1] | binding result [2] |
| --- | --- | --- |
| B1 | binds | – |
| B2 | – | binds |
| B3 | binds | – |
